Paper PMC9841417 (Nucleic Acids Research, 2023)
Positions count from the first letter of the chain named. In names and notes the source's numbering stands.

B1: Full-length Lhr H1199A-R1206A-R1286A (natural protein, Mycobacterium smegmatis, UniProt A0QT91 1-1507, looked up)
chain: MTTNGADPLGRFSALTREWFTTAFAAPTPAQADAWSAISEGNNTLVIAPTGSGKTLAAFLWAIDRLADPAREPSQGTQVLYVSPLKALAVDVERNLRTPLTGITRVAERHGLPAPSITVGVRSGDTPPNQRRAMIANPPDVLITTPESLFLMLTSAARETLTSVRTVIVDEVHAVAATKRGAHLALSLERLDQLLDTPAQRIGLSATVRPPEEVARFLSGQAPTTIVCPPAAKTFDLSVQVPVPDMANLDNNSIWPDVEERIVDLVEAHNSSIVFANSRRLAERLTSRLNEIHAERSGIELPAGPNPEVGGGAPAHLMGSGQANGAPPLLARAHHGSVSKEQRAQVEDDLKSGRLRAVVATSSLELGIDMGAVDLVIQVEAPPSVASGLQRVGRAGHQVGEISQGVLFPKHRTDLIGCAVTVQRMQTGDIETLRVPANPLDVLAQHTVAVAALEPVDADAWFDAVRRSAPFATLPRSAFEATLDLLSGKYPSTEFAELRPRLVYDRDTGTLTARPGAQRLAVTSGGAIPDRGMFTVYLASETEKPSRVGELDEEMVYESRPGDVISLGATSWRITEITHDRVLVIPAPGQPARLPFWRGDSVGRPAELGAAVGAFTGELASLDRKAFDKRCQKMGFAGYATDNLHQLLREQREATGVVPSDTTFVVERFRDELGDWRVILHSPYGLRVHGPLALAVGRRLRERYGIDEKPTASDDGIIVRLPDSGDTPPGADLFVFDADEIEPIVTAEVGGSALFASRFRECAARALLLPRRHPGKRSPLWHQRQRAAQLLDIARKYPDFPIVLEAVRECLQDVYDVPALIELMHKIAQRRLRIVEVETATPSPFAASLLFGYVGAFMYEGDSPLAERRAAALALDTVLLSELLGRVELRELLDPAVVASTSAQLQHLTPERAARDAEGVADLLRLLGPLTEADIAQRCTADNIGAWLDGLHAAKRALPVTYAGQTWWAAVEDIGLLRDGIGVPVPVGVPAAFTESASDPLGDLIGRYARTRGPFTTEQTAARFGLGVRVASDVLSRMAVDGRLIRGEFAADLSGEQWCDAQVLKILRRRSLAALRAQVEPVSTDAYARFLPSWQHVGSTNTTGIDGLATVIEQLAGVPIPASAVESLVFPQRVRDYQPAMLDELLASGEVMWSGAGQIGNGDGWVAFHLADTAPLTLTHGAEIEFTDTHRVILETLGAGGAYFFAQLTDGTVEGTAGQELKQALWELIWAGWVTGDTFAPVRAVLSGPRRSGAPAHRQRQRPPRLSRYSVAHAQTRGTDPTVSGAWSALPAAEPDSTVRAHFQAELLLGRHGVLTKGAVGAEGVPGGFATLYKVLSTFEDAGRCQRGYFVESLGGAQFAVASTVDRLRSYLDNVDPERPEYHAVVLAATDPANPYGAALGWPTDSEAHRPGRKAGALVALVDGRLVWFLERGGRSLLSFGADADAQRAAAGALTDLVSAGRIPSLLVERINGVAVLDPDVDAERAVVQDALLGAGLSRTPRGLRLR
B2: Lhr-CTD (aa 863-1507) R915A-T1100A-D1366A (domain or fragment, Mycobacterium smegmatis, UniProt A0QT91 863-1507, looked up)
chain: SPLAERRAAALALDTVLLSELLGRVELRELLDPAVVASTSAQLQHLTPERAAADAEGVADLLRLLGPLTEADIAQRCTADNIGAWLDGLHAAKRALPVTYAGQTWWAAVEDIGLLRDGIGVPVPVGVPAAFTESASDPLGDLIGRYARTRGPFTTEQTAARFGLGVRVASDVLSRMAVDGRLIRGEFAADLSGEQWCDAQVLKILRRRSLAALRAQVEPVSTDAYARFLPSWQHVGSANTTGIDGLATVIEQLAGVPIPASAVESLVFPQRVRDYQPAMLDELLASGEVMWSGAGQIGNGDGWVAFHLADTAPLTLTHGAEIEFTDTHRVILETLGHGGAYFFRQLTDGTVEGTAGQELKQALWELIWAGWVTGDTFAPVRAVLSGPRRSGAPAHRQRQRPPRLSRYSVAHAQTRGTDPTVSGRWSALPAAEPDSTVRAHFQAELLLGRHGVLTKGAVGAEGVPGGFATLYKVLSTFEDAGRCQRGYFVESLGGAQFAVASTVARLRSYLDNVDPERPEYHAVVLAATDPANPYGAALGWPTDSEAHRPGRKAGALVALVDGRLVWFLERGGRSLLSFGADADAQRAAAGALTDLVSAGRIPSLLVERINGVAVLDPDVDAERAVVQDALLGAGLSRTPRGLRLR
B3: Lhr-CTD (aa 863-1507) H1199A-R1206A-R1286A (domain or fragment, Mycobacterium smegmatis, UniProt A0QT91 863-1507, looked up)
chain: B2 chain with A53R, A238T, H337A, R344A, R424A, A504D

Target: the molecule itself
Assay: SEC

Protein	stoichiometry N
B1	2
B2	4
B3	2
